From PMC8087788, “Parallel G-quadruplexes recruit the HSV-1 transcription factor ICP4 to promote viral transcription in herpes virus-infected human cells”

T1: ICP4 (nuclear extract) (HSV-1 strain F) (UniProt P08392)
T1 sequence: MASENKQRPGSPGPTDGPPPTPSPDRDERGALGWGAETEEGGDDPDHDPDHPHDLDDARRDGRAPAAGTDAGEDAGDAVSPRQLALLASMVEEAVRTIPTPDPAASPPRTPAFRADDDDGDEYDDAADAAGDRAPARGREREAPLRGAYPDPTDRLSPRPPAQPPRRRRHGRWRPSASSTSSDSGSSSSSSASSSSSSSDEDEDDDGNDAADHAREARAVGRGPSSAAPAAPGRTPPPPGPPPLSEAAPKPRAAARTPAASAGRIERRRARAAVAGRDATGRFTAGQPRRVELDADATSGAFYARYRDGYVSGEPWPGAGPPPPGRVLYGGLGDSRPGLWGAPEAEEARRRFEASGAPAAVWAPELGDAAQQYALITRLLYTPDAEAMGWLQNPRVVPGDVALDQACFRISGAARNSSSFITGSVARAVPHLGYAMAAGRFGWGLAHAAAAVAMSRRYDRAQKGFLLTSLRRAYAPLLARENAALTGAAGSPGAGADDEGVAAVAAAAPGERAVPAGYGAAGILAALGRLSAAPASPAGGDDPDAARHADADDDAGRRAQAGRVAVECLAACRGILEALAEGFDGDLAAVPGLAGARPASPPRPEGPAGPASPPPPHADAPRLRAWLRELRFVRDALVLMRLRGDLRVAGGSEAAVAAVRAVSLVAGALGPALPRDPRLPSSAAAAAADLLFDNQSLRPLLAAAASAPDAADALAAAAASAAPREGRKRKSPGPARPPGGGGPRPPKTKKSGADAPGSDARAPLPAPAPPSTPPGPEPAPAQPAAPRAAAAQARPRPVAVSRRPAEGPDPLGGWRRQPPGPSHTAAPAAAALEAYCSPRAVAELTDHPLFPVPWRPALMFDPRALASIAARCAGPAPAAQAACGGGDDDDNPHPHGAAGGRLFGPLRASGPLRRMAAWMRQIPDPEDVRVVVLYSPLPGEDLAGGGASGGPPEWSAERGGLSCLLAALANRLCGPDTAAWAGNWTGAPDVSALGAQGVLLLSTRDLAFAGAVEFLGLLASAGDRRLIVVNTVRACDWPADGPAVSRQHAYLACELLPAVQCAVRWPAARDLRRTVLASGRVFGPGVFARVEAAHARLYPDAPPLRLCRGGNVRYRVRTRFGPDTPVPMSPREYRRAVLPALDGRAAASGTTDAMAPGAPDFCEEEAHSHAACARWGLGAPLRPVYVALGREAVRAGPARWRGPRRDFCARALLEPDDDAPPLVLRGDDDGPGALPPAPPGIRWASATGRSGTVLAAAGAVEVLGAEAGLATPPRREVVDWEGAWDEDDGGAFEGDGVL

T2: ufICP4 (ultrafiltrated ICP4) (HSV-1 strain F, UniProt P08392 1-1298)
T2 sequence: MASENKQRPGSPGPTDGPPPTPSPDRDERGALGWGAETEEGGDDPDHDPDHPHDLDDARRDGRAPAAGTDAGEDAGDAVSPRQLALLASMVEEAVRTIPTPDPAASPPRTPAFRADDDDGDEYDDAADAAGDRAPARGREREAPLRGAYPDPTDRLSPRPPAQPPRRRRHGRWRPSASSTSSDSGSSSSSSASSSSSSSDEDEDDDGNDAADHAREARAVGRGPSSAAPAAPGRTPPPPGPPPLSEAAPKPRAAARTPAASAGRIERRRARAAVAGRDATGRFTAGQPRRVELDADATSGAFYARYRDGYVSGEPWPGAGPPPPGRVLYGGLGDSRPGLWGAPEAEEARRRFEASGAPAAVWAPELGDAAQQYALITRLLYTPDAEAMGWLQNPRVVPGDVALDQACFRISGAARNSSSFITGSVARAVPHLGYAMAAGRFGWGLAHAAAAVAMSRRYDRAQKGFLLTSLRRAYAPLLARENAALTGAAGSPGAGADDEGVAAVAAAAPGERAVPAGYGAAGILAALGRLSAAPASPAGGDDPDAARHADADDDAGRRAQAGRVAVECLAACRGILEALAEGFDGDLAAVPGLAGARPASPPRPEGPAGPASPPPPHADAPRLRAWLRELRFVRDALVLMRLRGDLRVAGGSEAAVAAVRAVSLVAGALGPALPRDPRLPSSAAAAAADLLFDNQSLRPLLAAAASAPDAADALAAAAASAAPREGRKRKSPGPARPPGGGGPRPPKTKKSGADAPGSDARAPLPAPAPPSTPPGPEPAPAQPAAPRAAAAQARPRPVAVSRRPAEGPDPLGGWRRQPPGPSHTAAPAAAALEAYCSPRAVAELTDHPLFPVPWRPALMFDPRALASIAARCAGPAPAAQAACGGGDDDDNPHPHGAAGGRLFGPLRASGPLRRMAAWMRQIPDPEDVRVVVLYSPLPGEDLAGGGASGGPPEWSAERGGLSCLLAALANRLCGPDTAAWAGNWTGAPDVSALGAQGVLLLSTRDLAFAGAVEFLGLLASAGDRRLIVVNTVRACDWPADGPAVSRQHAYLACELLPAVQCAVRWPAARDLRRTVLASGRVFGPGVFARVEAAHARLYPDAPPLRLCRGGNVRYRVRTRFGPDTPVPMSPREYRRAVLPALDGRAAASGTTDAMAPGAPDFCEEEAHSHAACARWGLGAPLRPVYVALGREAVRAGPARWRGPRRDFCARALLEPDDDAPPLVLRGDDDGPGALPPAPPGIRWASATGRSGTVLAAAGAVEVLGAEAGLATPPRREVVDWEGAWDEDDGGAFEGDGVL


What was measured:
[1] = biological target: T1, ICP4 (nuclear extract) (HSV-1 strain F); assay: pull-down; conditions: XL pull-down: oligos folded in 20 mM PB pH 7.4, 80 mM KCl, 4 C, 45 min, wash 50 mM Tris-HCl pH 7.5, 150 mM NaCl; ICP4 EMSA: 20 mM Tris-HCl pH 8, 25 mM KCl …
ICP8 [2] = biological target: T3, ICP8 (HSV-1, UniProt P04296 1-1196); assay: EMSA; 0-3 ug ICP8; Na+ and K+ buffers; XL pull-down: oligos folded in 20 mM PB pH 7.4, 80 mM KCl, 4 C, 45 min, wash 50 mM Tris-HCl pH 7.5, 150 mM NaCl; ICP4 EMSA: 20 mM Tris-HCl pH 8, 25 mM KCl, 1.5; conditions: protein: recombinant; tags: GST; label: 32P (Methods) / 33P; G4
[3] = biological target: T2, ufICP4 (ultrafiltrated ICP4); assay: EMSA; 5-10x ufICP4; XL pull-down: oligos folded in 20 mM PB pH 7.4, 80 mM KCl, 4 C, 45 min, wash 50 mM Tris-HCl pH 7.5, 150 mM NaCl; ICP4 EMSA: 20 mM Tris-HCl pH 8, 25 mM KCl, 1.5; conditions: protein: native, chain copies: 2, label: 5' FAM
ICP8 [4] = biological target: T3, ICP8; assay: EMSA; 0-3 ug ICP8; XL pull-down: oligos folded in 20 mM PB pH 7.4, 80 mM KCl, 4 C, 45 min, wash 50 mM Tris-HCl pH 7.5, 150 mM NaCl; ICP4 EMSA: 20 mM Tris-HCl pH 8, 25 mM KCl, 1.5; conditions: protein: recombinant; tags: GST; label: 32P (Methods) / 33P

T3 sequence (P04296 whole entry): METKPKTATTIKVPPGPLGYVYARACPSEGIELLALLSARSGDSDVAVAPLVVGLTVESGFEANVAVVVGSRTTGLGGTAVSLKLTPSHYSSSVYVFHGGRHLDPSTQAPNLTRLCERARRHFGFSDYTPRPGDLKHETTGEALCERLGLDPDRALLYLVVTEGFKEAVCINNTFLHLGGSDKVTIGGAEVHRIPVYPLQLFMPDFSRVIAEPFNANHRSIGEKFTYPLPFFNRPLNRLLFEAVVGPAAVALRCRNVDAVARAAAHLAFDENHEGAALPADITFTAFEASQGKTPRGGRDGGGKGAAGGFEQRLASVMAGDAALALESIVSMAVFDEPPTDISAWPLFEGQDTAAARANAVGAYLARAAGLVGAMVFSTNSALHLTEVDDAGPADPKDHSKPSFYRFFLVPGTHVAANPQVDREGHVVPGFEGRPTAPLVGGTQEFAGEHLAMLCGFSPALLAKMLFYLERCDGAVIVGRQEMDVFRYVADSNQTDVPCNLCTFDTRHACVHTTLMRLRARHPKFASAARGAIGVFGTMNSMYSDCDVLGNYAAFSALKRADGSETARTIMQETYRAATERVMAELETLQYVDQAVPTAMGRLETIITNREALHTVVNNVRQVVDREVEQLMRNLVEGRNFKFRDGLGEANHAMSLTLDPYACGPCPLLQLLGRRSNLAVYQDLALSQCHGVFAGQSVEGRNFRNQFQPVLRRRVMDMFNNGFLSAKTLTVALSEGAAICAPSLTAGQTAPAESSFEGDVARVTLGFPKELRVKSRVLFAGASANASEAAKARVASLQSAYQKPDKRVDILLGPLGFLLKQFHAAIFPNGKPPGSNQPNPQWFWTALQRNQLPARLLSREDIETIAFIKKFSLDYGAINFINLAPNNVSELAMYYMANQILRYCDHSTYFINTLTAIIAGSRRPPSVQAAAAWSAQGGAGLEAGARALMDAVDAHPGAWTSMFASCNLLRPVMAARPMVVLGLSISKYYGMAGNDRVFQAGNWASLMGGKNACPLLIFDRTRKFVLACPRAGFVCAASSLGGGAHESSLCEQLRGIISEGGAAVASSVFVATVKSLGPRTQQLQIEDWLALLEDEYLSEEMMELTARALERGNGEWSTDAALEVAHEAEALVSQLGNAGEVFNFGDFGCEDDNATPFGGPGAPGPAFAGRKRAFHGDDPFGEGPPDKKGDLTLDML

Row | Molecule | binding signal [1] | binding result (ICP8 [2]) | further results
1 | TTTTTGGGGAGGGTGGGGAGGGTGGGGAAGG [B-myc] | 2.5 fold vs IE3 | – | –
2 | TTTTTGGGGGCGAGGGGCGGGAGGGGGCGAGGGGGGGGGCGAGGGGCGGGAGGGGGCGAGGGG [B-un2L2] | 2.5 fold vs IE3 | – | –
3 | TTTTTCCGATCGTCCACACGGAGC (double strand) [B-IE3 (ICP4 consensus; IE-CS)] | – | – | binding signal (fold vs IE3 (reference)) [1]: 1
4 | CGGGGCGGGCCGGGGGCGGGG [B-VEGF] | 2.5 fold vs IE3 | – | –
5 | GGGGGCGAGGGGCGGGAGGGGGCGAGGGG (structured_DNA) [un2 (radiolabelled)] | – | no binding | –
6 | GGGAGGCGTGGCCTGGGCGGGACTGGGG (structured_DNA) [LTR-III (radiolabelled)] | – | no binding | –
7 | GGAGTCGTGTCGCGTGTCGAGCGTGTGTAGTGG (ssDNA) [F-G-rich-scrambled] | – | – | binding result ([3]; unfolded): no binding
8 | TTTTTTTTTTTTTTTTTTTTTTTTTTTTTT (ssDNA) [PolyT (T30)] | – | – | binding result (ICP8 [4]): binds
9 | GGGTTAGGGTTAGGGTTAGGG (structured_DNA) [hTel (radiolabelled)] | – | no binding | –
10 | GGGGGCGAGGGGCGGGAGGGGGCGAGGGG (structured_DNA) [F-un2] | – | – | binding result ([3]; G4): binds
